Reference: the supplement of paper PMC5998384

What was measured:
[1] = tested on: HeLa Kyoto; assay: solubility change mitosis vs G1/S (difference of NP-40 vs SDS log2 ratios) (log2 ratio difference); higher = more soluble in mitosis
[2] = tested on: HeLa Kyoto; assay: thermal stability score vs G1/S (z-score of summed log2 fold changes over temperatures); higher = more thermally stable than in G1/S
[3] = tested on: HeLa Kyoto; assay: melting temperature (median over replicates), in situ; higher = more thermally stable
[4] = tested on: HeLa Kyoto; assay: solubility in G1/S (NP-40 vs SDS abundance) (log2 ratio); higher = more soluble; details: cell cycle stage: G1/S
[5] = cell cycle stage: early G1 (4.5 h after nocodazole release)
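For melting temperature (median over replicates), in situ in this document: HeLa Kyoto cells synchronized by double thymidine or nocodazole block, proteins quantified by TMT10plex mass spectrometry, three independent biological replicates.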
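For solubility change mitosis vs G1/S (difference of NP-40 vs SDS log2 ratios) in this document: synchronized HeLa Kyoto cells (double thymidine block for G1/S, nocodazole release for mitosis), protein amounts in NP-40 versus SDS lysates quantified by mass spectrometry, three biological replicates.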
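For solubility in G1/S (NP-40 vs SDS abundance) in this document: HeLa Kyoto cells arrested at G1/S by double thymidine block, proteins quantified by TMT10plex mass spectrometry in mild NP-40 versus SDS extracts, three biological replicates.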
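For thermal stability score vs G1/S (z-score of summed log2 fold changes over temperatures) in this document: synchronized HeLa Kyoto cells, proteins quantified by TMT10plex mass spectrometry, three biological replicates, mitosis taken 0.5 h after nocodazole release, G1/S directly after double thymidine block.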

MSQSGAVSCCPGATNGSLGRSDGVAKMSPKDLFEQRKKYSNSNVIMHETSQYHVQHLATFIMDKSEAITSVDDAIRKLVQLSSKEKIWTQEMLLQVNDQSLRLLDIESQEELEDFPLPTVQRSQTVLNQLRYPSVLLLVCQDSEQSKPDVHFFHCDEVEAELVHEDIESALADCRLGKKMRPQTLKGHQEKIRQRQSILPPPQGPAPIPFQHRGGDSPEAKNRVGPQVPLSEPGFRRRESQEEPRAVLAQKIEKETQILNCALDDIEWFVARLQKAAEAFKQLNQRKKGKKKGKKAPAEGVLTLRARPPSEGEFIDCFQKIKLAINLLAKLQKHIQNPSAAELVHFLFGPLDLIVNTCSGPDIARSVSCPLLSRDAVDFLRGHLVPKEMSLWESLGESWMRPRSEWPREPQVPLYVPKFHSGWEPPVDVLQEAPWEVEGLASAPIEEVSPVSRQSIRNSQKHSPTSEPTPPGDALPPVSSPHTHRGYQPTPAMAKYVKILYDFTARNANELSVLKDEVLEVLEDGRQWWKLRSRSGQAGYVPCNILGEARPEDAGAPFEQAGQKYWGPASPTHKLPPSFPGNKDELMQHMDEVNDELIRKISNIRAQPQRHFRVERSQPVSQPLTYESGPDEVRAWLEAKAFSPRIVENLGILTGPQLFSLNKEELKKVCGEEGVRVYSQLTMQKAFLEKQQSGSELEELMNKFHSMNQRRGEDS [EPS8L2]
solubility change mitosis (log2) [1]: -0.0548 | thermal stability score [2, 5]: 0.00646 | thermal stability score ([2]; cell cycle stage: mitosis): 0.475 | melting temperature ([3]; cell cycle stage: G1/S): 50.4 °C | melting temperature ([3]; cell cycle stage: mitosis): 50.1 °C | solubility in G1/S (log2) [4]: 0.468

MPGETEEPRPPEQQDQEGGEAAKAAPEEPQQRPPEAVAAAPAGTTSSRVLRGGRDRGRAAAAAAAAAVSRRRKAEYPRRRRSSPSARPPDVPGQQPQAAKSPSPVQGKKSPRLLCIEKVTTDKDPKEEKEEEDDSALPQEVSIAASRPSRGWRSSRTSVSRHRDTENTRSSRSKTGSLQLICKSEPNTDQLDYDVGEEHQSPGGISSEEEEEEEEEMLISEEEIPFKDDPRDETYKPHLERETPKPRRKSGKVKEEKEKKEIKVEVEVEVKEEENEIREDEEPPRKRGRRRKDDKSPRLPKRRKKPPIQYVRCEMEGCGTVLAHPRYLQHHIKYQHLLKKKYVCPHPSCGRLFRLQKQLLRHAKHHTDQRDYICEYCARAFKSSHNLAVHRMIHTGEKPLQCEICGFTCRQKASLNWHMKKHDADSFYQFSCNICGKKFEKKDSVVAHKAKSHPEVLIAEALAANAGALITSTDILGTNPESLTQPSDGQGLPLLPEPLGNSTSGECLLLEAEGMSKSYCSGTERVSLMADGKIFVGSGSSGGTEGLVMNSDILGATTEVLIEDSDSAGP [ZFP91]
solubility change mitosis (log2) [1]: 0.0732 | thermal stability score [2, 5]: 2.06 | thermal stability score ([2]; cell cycle stage: mitosis): 1.42 | melting temperature ([3]; cell cycle stage: G1/S): 51.9 °C | melting temperature ([3]; cell cycle stage: mitosis): 53.2 °C | solubility in G1/S (log2) [4]: -0.401

MLRLVPTGARAIVDMSYARHFLDFQGSAIPQAMQKLVVTRLSPNFREAVTLSRDCPVPLPGDGDLLVRNRFVGVNASDINYSAGRYDPSVKPPFDIGFEGIGEVVALGLSASARYTVGQAVAYMAPGSFAEYTVVPASIATPVPSVKPEYLTLLVSGTTAYISLKELGGLSEGKKVLVTAAAGGTGQFAMQLSKKAKCHVIGTCSSDEKSAFLKSLGCDRPINYKTEPVGTVLKQEYPEGVDVVYESVGGAMFDLAVDALATKGRLIVIGFISGYQTPTGLSPVKAGTLPAKLLKKSASVQGFFLNHYLSKYQAAMSHLLEMCVSGDLVCEVDLGDLSPEGRFTGLESIFRAVNYMYMGKNTGKIVVELPHSVNSKL [ZADH2]
solubility change mitosis (log2) [1]: -0.199 | thermal stability score [2, 5]: 0.549 | thermal stability score ([2]; cell cycle stage: mitosis): 1.57 | melting temperature ([3]; cell cycle stage: G1/S): 52.9 °C | melting temperature ([3]; cell cycle stage: mitosis): 53.5 °C | solubility in G1/S (log2) [4]: 0.198

MEDLDQSPLVSSSDSPPRPQPAFKYQFVREPEDEEEEEEEEEEDEDEDLEELEVLERKPAAGLSAAPVPTAPAAGAPLMDFGNDFVPPAPRGPLPAAPPVAPERQPSWDPSPVSSTVPAPSPLSAAAVSPSKLPEDDEPPARPPPPPPASVSPQAEPVWTPPAPAPAAPPSTPAAPKRRGSSGSVDETLFALPAASEPVIRSSAENMDLKEQPGNTISAGQEDFPSVLLETAASLPSLSPLSAASFKEHEYLGNLSTVLPTEGTLQENVSEASKEVSEKAKTLLIDRDLTEFSELEYSEMGSSFSVSPKAESAVIVANPREEIIVKNKDEEEKLVSNNILHNQQELPTALTKLVKEDEVVSSEKAKDSFNEKRVAVEAPMREEYADFKPFERVWEVKDSKEDSDMLAAGGKIESNLESKVDKKCFADSLEQTNHEKDSESSNDDTSFPSTPEGIKDRSGAYITCAPFNPAATESIATNIFPLLGDPTSENKTDEKKIEEKKAQIVTEKNTSTKTSNPFLVAAQDSETDYVTTDNLTKVTEEVVANMPEGLTPDLVQEACESELNEVTGTKIAYETKMDLVQTSEVMQESLYPAAQLCPSFEESEATPSPVLPDIVMEAPLNSAVPSAGASVIQPSSSPLEASSVNYESIKHEPENPPPYEEAMSVSLKKVSGIKEEIKEPENINAALQETEAPYISIACDLIKETKLSAEPAPDFSDYSEMAKVEQPVPDHSELVEDSSPDSEPVDLFSDDSIPDVPQKQDETVMLVKESLTETSFESMIEYENKEKLSALPPEGGKPYLESFKLSLDNTKDTLLPDEVSTLSKKEKIPLQMEELSTAVYSNDDLFISKEAQIRETETFSDSSPIEIIDEFPTLISSKTDSFSKLAREYTDLEVSHKSEIANAPDGAGSLPCTELPHDLSLKNIQPKVEEKISFSDDFSKNGSATSKVLLLPPDVSALATQAEIESIVKPKVLVKEAEKKLPSDTEKEDRSPSAIFSAELSKTSVVDLLYWRDIKKTGVVFGASLFLLLSLTVFSIVSVTAYIALALLSVTISFRIYKGVIQAIQKSDEGHPFRAYLESEVAISEELVQKYSNSALGHVNCTIKELRRLFLVDDLVDSLKFAVLMWVFTYVGALFNGLTLLILALISLFSVPVIYERHQAQIDHYLGLANKNVKDAMAKIQAKIPGLKRKAE [RTN4]
solubility change mitosis (log2) [1]: -0.155 | thermal stability score [2, 5]: -0.746 | thermal stability score ([2]; cell cycle stage: mitosis): -1.43 | melting temperature ([3]; cell cycle stage: G1/S): 56.6 °C | melting temperature ([3]; cell cycle stage: mitosis): 56.7 °C | solubility in G1/S (log2) [4]: -0.0792

MSEVTKNSLEKILPQLKCHFTWNLFKEDSVSRDLEDRVCNQIEFLNTEFKATMYNLLAYIKHLDGNNEAALECLRQAEELIQQEHADQAEIRSLVTWGNYAWVYYHLGRLSDAQIYVDKVKQTCKKFSNPYSIEYSELDCEEGWTQLKCGRNERAKVCFEKALEEKPNNPEFSSGLAIAMYHLDNHPEKQFSTDVLKQAIELSPDNQYVKVLLGLKLQKMNKEAEGEQFVEEALEKSPCQTDVLRSAAKFYRRKGDLDKAIELFQRVLESTPNNGYLYHQIGCCYKAKVRQMQNTGESEASGNKEMIEALKQYAMDYSNKALEKGLNPLNAYSDLAEFLETECYQTPFNKEVPDAEKQQSHQRYCNLQKYNGKSEDTAVQHGLEGLSISKKSTDKEEIKDQPQNVSENLLPQNAPNYWYLQGLIHKQNGDLLQAAKCYEKELGRLLRDAPSGIGSIFLSASELEDGSEEMGQGAVSSSPRELLSNSEQLN [IFIT3]
solubility change mitosis (log2) [1]: -0.0471 | thermal stability score [2, 5]: -0.282 | thermal stability score ([2]; cell cycle stage: mitosis): 1.1 | melting temperature ([3]; cell cycle stage: G1/S): 48.2 °C | melting temperature ([3]; cell cycle stage: mitosis): 49 °C | solubility in G1/S (log2) [4]: 0.357

MVEKEEAGGGISEEEAAQYDRQIRLWGLEAQKRLRASRVLLVGLKGLGAEIAKNLILAGVKGLTMLDHEQVTPEDPGAQFLIRTGSVGRNRAEASLERAQNLNPMVDVKVDTEDIEKKPESFFTQFDAVCLTCCSRDVIVKVDQICHKNSIKFFTGDVFGYHGYTFANLGEHEFVEEKTKVAKVSQGVEDGPDTKRAKLDSSETTMVKKKVVFCPVKEALEVDWSSEKAKAALKRTTSDYFLLQVLLKFRTDKGRDPSSDTYEEDSELLLQIRNDVLDSLGISPDLLPEDFVRYCFSEMAPVCAVVGGILAQEIVKALSQRDPPHNNFFFFDGMKGNGIVECLGPK [SAE1]
solubility change mitosis (log2) [1]: -0.153 | thermal stability score [2, 5]: 0.0359 | thermal stability score ([2]; cell cycle stage: mitosis): 0.096 | melting temperature ([3]; cell cycle stage: G1/S): 52.4 °C | melting temperature ([3]; cell cycle stage: mitosis): 52.3 °C | solubility in G1/S (log2) [4]: 0.0883

MDLLPPKPKYNPLRNESLSSLEEGASGSTPPEELPSPSASSLGPILPPLPGDDSPTTLCSFFPRMSNLRLANPAGGRPGSKGEPGRAADDGEGIVGAAMPDSGPLPLLQDMNKLSGGGGRRTRVEGGQLGGEEWTRHGSFVNKPTRGWLHPNDKVMGPGVSYLVRYMGCVEVLQSMRALDFNTRTQVTREAISLVCEAVPGAKGATRRRKPCSRPLSSILGRSNLKFAGMPITLTVSTSSLNLMAADCKQIIANHHMQSISFASGGDPDTAEYVAYVAKDPVNQRACHILECPEGLAQDVISTIGQAFELRFKQYLRNPPKLVTPHDRMAGFDGSAWDEEEEEPPDHQYYNDFPGKEPPLGGVVDMRLREGAAPGAARPTAPNAQTPSHLGATLPVGQPVGGDPEVRKQMPPPPPCPGRELFDDPSYVNVQNLDKARQAVGGAGPPNPAINGSAPRDLFDMKPFEDALRVPPPPQSVSMAEQLRGEPWFHGKLSRREAEALLQLNGDFLVRESTTTPGQYVLTGLQSGQPKHLLLVDPEGVVRTKDHRFESVSHLISYHMDNHLPIISAGSELCLQQPVERKL [SHC1]
solubility change mitosis (log2) [1]: -0.067 | thermal stability score [2, 5]: -1.86 | thermal stability score ([2]; cell cycle stage: mitosis): -2.06 | melting temperature ([3]; cell cycle stage: G1/S): 52.5 °C | melting temperature ([3]; cell cycle stage: mitosis): 52.9 °C | solubility in G1/S (log2) [4]: 0.307

MWIQVRTIDGSKTCTIEDVSRKATIEELRERVWALFDVRPECQRLFYRGKQLENGYTLFDYDVGLNDIIQLLVRPDPDHLPGTSTQIEAKPCSNSPPKVKKAPRVGPSNQPSTSARARLIDPGFGIYKVNELVDARDVGLGAWFEAHIHSVTRASDGQSRGKTPLKNGSSCKRTNGNIKHKSKENTNKLDSVPSTSNSDCVAADEDVIYHIQYDEYPESGTLEMNVKDLRPRARTILKWNELNVGDVVMVNYNVESPGQRGFWFDAEITTLKTISRTKKELRVKIFLGGSEGTLNDCKIISVDEIFKIERPGAHPLSFADGKFLRRNDPECDLCGGDPEKKCHSCSCRVCGGKHEPNMQLLCDECNVAYHIYCLNPPLDKVPEEEYWYCPSCKTDSSEVVKAGERLKMSKKKAKMPSASTESRRDWGRGMACVGRTRECTIVPSNHYGPIPGIPVGSTWRFRVQVSEAGVHRPHVGGIHGRSNDGAYSLVLAGGFADEVDRGDEFTYTGSGGKNLAGNKRIGAPSADQTLTNMNRALALNCDAPLDDKIGAESRNWRAGKPVRVIRSFKGRKISKYAPEEGNRYDGIYKVVKYWPEISSSHGFLVWRYLLRRDDVEPAPWTSEGIERSRRLCLRLQYPAGYPSDKEGKKPKGQSKKQPSGTTKRPISDDDCPSASKVYKASDSAEAIEAFQLTPQQQHLIREDCQNQKLWDEVLSHLVEGPNFLKKLEQSFMCVCCQELVYQPVTTECFHNVCKDCLQRSFKAQVFSCPACRHDLGQNYIMIPNEILQTLLDLFFPGYSKGR [UHRF2]
solubility change mitosis (log2) [1]: 0.175 | thermal stability score [2, 5]: 2.81 | thermal stability score ([2]; cell cycle stage: mitosis): 4.34 | melting temperature ([3]; cell cycle stage: G1/S): 44.3 °C | melting temperature ([3]; cell cycle stage: mitosis): 46.9 °C | solubility in G1/S (log2) [4]: -0.401
